Assay [1] concerns the target human EGFR on CHO-S-hEGFR cells (human) (UniProt P00533). Put plainly: flow cytometry, transfected CHO-S cells. On the technique in general: A flow cytometer gives signals particle by particle.
Assay [2] has as its target human MUC1 (484 amino acids) on CHO-S-hMUC1 (484AA) cells (human) (UniProt P15941). Briefly: flow cytometry, transfected CHO-S cells.
Assay [3] deals with monkey (Macaca fascicularis) MUC1 on CHO-S-fasMUC1 cells (monkey (Macaca fascicularis)). Briefly: flow cytometry, transfected CHO-S cells.
Chain of monkey (Macaca fascicularis) MUC1 on CHO-S-fasMUC1 cells (monkey (Macaca fascicularis)) (chain, as listed by the source): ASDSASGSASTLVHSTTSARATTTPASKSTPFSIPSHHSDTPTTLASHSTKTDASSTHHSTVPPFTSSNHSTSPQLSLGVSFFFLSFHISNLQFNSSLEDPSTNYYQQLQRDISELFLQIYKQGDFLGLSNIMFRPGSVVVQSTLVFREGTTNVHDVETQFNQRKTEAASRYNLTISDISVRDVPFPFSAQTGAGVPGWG
Assay [4] has as its target monkey EGFR on CHO-S-fasEGFR cells (monkey) (UniProt P55245). Briefly: flow cytometry, transfected CHO-S cells.
The target in assay [5] is human EGFR on CHO-S-hEGFR cells (human) (UniProt P00533). Briefly: flow cytometry, transfected CHO-S cells, secondary antibody only.
For assay [6], the target named is human MUC1 (484 amino acids) on CHO-S-hMUC1 (484AA) cells (human) (UniProt P15941). Described as above.
For assay [7], the target named is monkey (Macaca fascicularis) MUC1 on CHO-S-fasMUC1 cells (monkey (Macaca fascicularis)). The description is as above.
The target in assay [8] is monkey EGFR on CHO-S-fasEGFR cells (monkey) (UniProt P55245). The description is as above.

For 2 substances, Percentage of Positive Cells (%) results are on record in patent publication US20260217860A1.

“isotype control (ISO), an antibody targeting an irrelevant target protein”: the Percentage of Positive Cells (%) in assay [1] came out at 0.7%; in assay [2], 4.05%; in assay [3], 1.15%; in assay [4], 0.58%.

With “secondary antibody anti-hIgG-Fc-Alex Flour 647 (RLI-H) (Jackson ImmunoResearch Laboratories, Inc., Cat #: 109-606-170)”, the Percentage of Positive Cells (%) in assay [5] was 0.66%; in assay [6], 2%; in assay [7], 0.91%; in assay [8], 0.19%.
